Experiments:
Assay in all cases: holdup assay
Design in all cases: key: below the threshold = too weak to quantify, mostly under pKd 3.1 to 4
DLG2_3, Q15700 = details: plain residues with an end cap or a label only (N-terminal biotin on a linker: ado-ado)
DLG1_2, Q12959 = details: plain residues with an end cap or a label only (N-terminal biotin on a linker: ado-ado)
MAGI2_2, Q86UL8 = biological target: MAGI2_2, Q86UL8
MPP6, Q9NZW5 = biological target: T1, MPP6, Q9NZW5; details: plain residues with an end cap or a label only (N-terminal biotin on a linker: ado-ado)
T1 sequence (Q9NZW5 125-219, limits assumed, looked up): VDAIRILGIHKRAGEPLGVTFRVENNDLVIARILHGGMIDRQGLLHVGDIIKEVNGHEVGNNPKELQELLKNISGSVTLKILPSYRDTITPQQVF

MAST2, Q6P0Q8 = biological target: MAST2, Q6P0Q8
NHERF3_1, Q5T2W1 = biological target: T2, NHERF3_1, Q5T2W1; details: plain residues with an end cap or a label only (N-terminal biotin on a linker: ado-ado)
T2 sequence (Q5T2W1 4-100, limits assumed, looked up): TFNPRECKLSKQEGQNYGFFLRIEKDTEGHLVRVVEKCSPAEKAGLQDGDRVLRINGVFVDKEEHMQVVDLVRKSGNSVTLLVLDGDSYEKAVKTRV

GRASP, Q7Z6J2 = details: plain residues with an end cap or a label only (N-terminal biotin on a linker: ado-ado)
Sequence of GRASP, Q7Z6J2 (Q7Z6J2 96-193): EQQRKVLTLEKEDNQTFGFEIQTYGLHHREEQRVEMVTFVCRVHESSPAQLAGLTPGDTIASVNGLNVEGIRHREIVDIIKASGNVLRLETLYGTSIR

IL16_4, Q14005 = details: plain residues with an end cap or a label only (N-terminal biotin on a linker: ado-ado)
Sequence of IL16_4, Q14005 (Q14005 1229-1329): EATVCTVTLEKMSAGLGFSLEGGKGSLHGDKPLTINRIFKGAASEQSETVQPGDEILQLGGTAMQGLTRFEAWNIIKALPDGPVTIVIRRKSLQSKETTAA

LIN7B, Q9HAP6 = biological target: T3, LIN7B, Q9HAP6; details: plain residues with an end cap or a label only (N-terminal biotin on a linker: ado-ado)
T3 sequence (Q9HAP6 88-185, limits assumed, looked up): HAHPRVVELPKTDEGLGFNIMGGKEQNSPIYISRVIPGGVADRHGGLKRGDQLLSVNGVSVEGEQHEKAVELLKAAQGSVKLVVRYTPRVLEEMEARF

NHERF4_4, Q86UT5 = details: plain residues with an end cap or a label only (N-terminal biotin on a linker: ado-ado)
Sequence of NHERF4_4, Q86UT5 (Q86UT5 464-550): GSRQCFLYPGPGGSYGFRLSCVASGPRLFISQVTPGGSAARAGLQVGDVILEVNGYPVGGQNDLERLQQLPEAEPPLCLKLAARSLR

APBA1_1, Q02410 = details: plain residues with an end cap or a label only
Sequence of APBA1_1, Q02410 (Q02410 other isoform, or with tags, fused parts or gaps): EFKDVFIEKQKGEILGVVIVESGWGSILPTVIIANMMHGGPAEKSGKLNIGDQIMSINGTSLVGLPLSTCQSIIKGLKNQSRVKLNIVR

AHNAK1, Q09666 = details: plain residues with an end cap or a label only
Sequence of AHNAK1, Q09666 (Q09666 2-98): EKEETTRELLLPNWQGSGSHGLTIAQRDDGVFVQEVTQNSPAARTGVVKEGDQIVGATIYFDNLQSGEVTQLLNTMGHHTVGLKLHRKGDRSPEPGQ

NHERF4_2, Q86UT5 = details: plain residues with an end cap or a label only (N-terminal biotin on a linker: ado-ado)
Sequence of NHERF4_2, Q86UT5 (Q86UT5 220-308): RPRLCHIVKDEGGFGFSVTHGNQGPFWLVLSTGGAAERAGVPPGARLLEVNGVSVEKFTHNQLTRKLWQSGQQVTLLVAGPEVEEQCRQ

FRMPD4, Q14CM0 = details: plain residues with an end cap or a label only (N-terminal biotin on a linker: ado-ado)
Sequence of FRMPD4, Q14CM0 (Q14CM0 67-160): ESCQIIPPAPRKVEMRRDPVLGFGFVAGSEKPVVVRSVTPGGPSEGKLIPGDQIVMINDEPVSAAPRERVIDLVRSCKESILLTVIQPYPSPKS

PARD3_3, Q8TEW0 = details: plain residues with an end cap or a label only (N-terminal biotin on a linker: ado-ado)
Sequence of PARD3_3, Q8TEW0 (Q8TEW0 582-685): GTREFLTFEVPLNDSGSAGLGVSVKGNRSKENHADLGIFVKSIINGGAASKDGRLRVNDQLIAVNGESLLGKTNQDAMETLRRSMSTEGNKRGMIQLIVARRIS

SYNJ2BP, P57105 = biological target: T4, SYNJ2BP, P57105
T4 sequence (P57105 8-110, limits assumed, looked up): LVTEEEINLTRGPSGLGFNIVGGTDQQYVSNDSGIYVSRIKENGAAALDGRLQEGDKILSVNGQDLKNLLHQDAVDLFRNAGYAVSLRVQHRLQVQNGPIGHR

SCRIB_3, Q14160 = biological target: SCRIB_3, Q14160
MAGI2_4, Q86UL8 = details: plain residues with an end cap or a label only (N-terminal biotin on a linker: ado-ado)
Sequence of MAGI2_4, Q86UL8 (Q86UL8 772-865): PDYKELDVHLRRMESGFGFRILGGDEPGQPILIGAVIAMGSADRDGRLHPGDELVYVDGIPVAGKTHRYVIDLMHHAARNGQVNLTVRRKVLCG

PARD3B_1, Q8TEW8 = biological target: T5, PARD3B_1, Q8TEW8
T5 sequence (Q8TEW8 196-299, limits assumed, looked up): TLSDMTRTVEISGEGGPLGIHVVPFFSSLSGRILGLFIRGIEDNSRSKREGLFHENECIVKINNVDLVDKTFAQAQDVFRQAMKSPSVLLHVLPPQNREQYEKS

APBA2_1, Q99767 = details: plain residues with an end cap or a label only
Sequence of APBA2_1, Q99767 (Q99767 565-653): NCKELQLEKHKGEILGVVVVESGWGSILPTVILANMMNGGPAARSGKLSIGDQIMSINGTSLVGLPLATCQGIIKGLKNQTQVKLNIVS

ARHGEF12, Q9NZN5-2 = details: modified: phosphorylated residue at S732 (position -3 from the C-terminal residue); phosphorylated residue at T734 (position -1 from the C-terminal residue)
Sequence of ARHGEF12, Q9NZN5-2 (Q9NZN5 other isoform, or with tags, fused parts or gaps): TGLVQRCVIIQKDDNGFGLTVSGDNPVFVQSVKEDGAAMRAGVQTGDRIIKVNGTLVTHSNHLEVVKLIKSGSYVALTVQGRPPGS

SNTB1, Q13884 = details: modified: O-phospho-L-serine at S732 (position -3 from the C-terminal residue); phosphorylated residue at T734 (position -1 from the C-terminal residue)
Sequence of SNTB1, Q13884 (Q13884 107-196): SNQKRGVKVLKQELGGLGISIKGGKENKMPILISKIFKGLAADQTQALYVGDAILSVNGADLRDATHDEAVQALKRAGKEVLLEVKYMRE

SNTA1, Q13424 = details: modified: O-phospho-L-serine at S732 (position -3 from the C-terminal residue); O-phospho-L-threonine at T734 (position -1 from the C-terminal residue)
Sequence of SNTA1, Q13424 (Q13424 84-171): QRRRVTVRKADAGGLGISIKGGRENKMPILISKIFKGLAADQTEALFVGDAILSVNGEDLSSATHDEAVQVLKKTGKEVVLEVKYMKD

SCRIB_1, Q14160 = details: modified: O-phospho-L-serine at S732 (position -3 from the C-terminal residue); O-phospho-L-threonine at T734 (position -1 from the C-terminal residue)
Sequence of SCRIB_1, Q14160 (Q14160 718-814): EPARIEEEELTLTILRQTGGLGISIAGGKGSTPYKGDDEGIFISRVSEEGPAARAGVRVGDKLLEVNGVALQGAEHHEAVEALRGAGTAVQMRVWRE

SNX27, Q96L92 = details: modified: phosphorylated residue at S732 (position -3 from the C-terminal residue); phosphorylated residue at T734 (position -1 from the C-terminal residue)
PDZRN4_1, Q6ZMN7 = details: modified: O-phospho-L-serine at S732 (position -3 from the C-terminal residue); O-phospho-L-threonine at T734 (position -1 from the C-terminal residue)
Sequence of PDZRN4_1, Q6ZMN7 (Q6ZMN7 213-318): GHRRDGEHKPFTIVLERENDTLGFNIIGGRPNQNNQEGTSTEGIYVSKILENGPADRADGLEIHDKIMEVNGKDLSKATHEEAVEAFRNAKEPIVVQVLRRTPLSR

PTPN3, P26045 = details: modified: O-phospho-L-serine at S732 (position -3 from the C-terminal residue); O-phospho-L-threonine at T734 (position -1 from the C-terminal residue)
Sequence of PTPN3, P26045 (P26045 505-587): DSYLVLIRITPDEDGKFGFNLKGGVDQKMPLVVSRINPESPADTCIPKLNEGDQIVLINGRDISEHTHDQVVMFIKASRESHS

SNTG2, Q9NY99 = details: modified: phosphorylated residue at S732 (position -3 from the C-terminal residue); phosphorylated residue at T734 (position -1 from the C-terminal residue)
Sequence of SNTG2, Q9NY99 (Q9NY99 70-159): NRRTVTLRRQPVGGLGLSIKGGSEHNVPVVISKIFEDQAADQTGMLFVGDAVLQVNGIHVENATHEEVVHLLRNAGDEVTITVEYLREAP

MAGI3_2, Q5TCQ9 = details: modified: O-phospho-L-serine at S732 (position -3 from the C-terminal residue); O-phospho-L-threonine at T734 (position -1 from the C-terminal residue)
Sequence of MAGI3_2, Q5TCQ9 (Q5TCQ9 398-503): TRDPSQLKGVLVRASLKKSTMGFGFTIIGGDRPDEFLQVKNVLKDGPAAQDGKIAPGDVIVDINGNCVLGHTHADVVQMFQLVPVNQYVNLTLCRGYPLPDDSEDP

HTRA1, Q92743 = details: modified: phosphorylated residue at T733 (position -2 from the C-terminal residue); phosphorylated residue at T734 (position -1 from the C-terminal residue)
Sequence of HTRA1, Q92743 (Q92743 365-480): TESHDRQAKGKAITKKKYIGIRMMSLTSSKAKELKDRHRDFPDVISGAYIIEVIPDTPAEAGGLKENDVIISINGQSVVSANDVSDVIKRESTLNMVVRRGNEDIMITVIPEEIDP

PDZD7_3, Q9H5P4 = details: modified: phosphorylated residue at S732 (position -3 from the C-terminal residue); phosphorylated residue at T733 (position -2 from the C-terminal residue); phosphorylated residue at T734 (position -1 from the C-terminal residue)
Sequence of PDZD7_3, Q9H5P4 (Q9H5P4 858-953): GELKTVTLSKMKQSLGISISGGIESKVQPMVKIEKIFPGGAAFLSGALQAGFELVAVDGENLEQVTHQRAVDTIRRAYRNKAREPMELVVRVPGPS

APBA1_2, Q02410 = details: plain residues with an end cap or a label only
Sequence of APBA1_2, Q02410 (Q02410 742-822): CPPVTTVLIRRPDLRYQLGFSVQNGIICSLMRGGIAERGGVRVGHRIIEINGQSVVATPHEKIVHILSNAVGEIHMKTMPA

[1] = plain residues with an end cap or a label only (N-terminal biotin on a linker: ado-ado)
[2] = modified: O-phospho-L-serine at S732 (position -3 from the C-terminal residue), O-phospho-L-threonine at T734 (position -1 from the C-terminal residue)

Sequence of MAGI2_2, Q86UL8 (Q86UL8 410-522): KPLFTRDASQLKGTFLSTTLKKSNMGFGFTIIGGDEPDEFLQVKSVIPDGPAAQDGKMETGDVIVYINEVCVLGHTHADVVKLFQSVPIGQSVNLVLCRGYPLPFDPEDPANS
Sequence of DLG1_2, Q12959 (Q12959 314-412): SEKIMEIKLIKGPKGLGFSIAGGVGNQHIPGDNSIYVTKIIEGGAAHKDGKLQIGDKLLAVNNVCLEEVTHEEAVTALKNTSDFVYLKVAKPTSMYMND

VKQYADVEGF [HNRNPK, P61978]
pKd (DLG2_3, Q15700): 3.55
pKd (DLG1_2, Q12959): 3.72
pKd (MAGI2_2, Q86UL8; [1]): 3.56
pKd (MPP6, Q9NZW5): 3.7
pKd (MAST2, Q6P0Q8; [1]): 3.87
pKd (NHERF3_1, Q5T2W1): 3.53
pKd (GRASP, Q7Z6J2): 3.76
pKd (IL16_4, Q14005): 3.51
pKd (LIN7B, Q9HAP6): 3.61
pKd (NHERF4_4, Q86UT5): 3.72

RRSQSRESQC [a stretch of P03148, P03148]
pKd (APBA1_1, Q02410): below the threshold

RRSQSRESQC [a stretch of P03146, P03146]
pKd (AHNAK1, Q09666): below the threshold

NTALVESEDL [PALLS, Q8WX93]
pKd (NHERF4_2, Q86UT5): 3.48
pKd (FRMPD4, Q14CM0): 3.65
pKd (PARD3_3, Q8TEW0): 3.61
pKd (SYNJ2BP, P57105; [1]): 3.49
pKd (SCRIB_3, Q14160; [1]): 3.73
pKd (MAGI2_4, Q86UL8): 3.59
pKd (IL16_4, Q14005): 3.57
pKd (PARD3B_1, Q8TEW8; [1]): 3.58

RRSQSRESQC [a stretch of P69706, P69706]
pKd (APBA2_1, Q99767): below the threshold

RVRKLPSTTL [a stretch of Q15418, Q15418]
pKd (ARHGEF12, Q9NZN5-2): below the threshold
pKd (SNTB1, Q13884): below the threshold
pKd (MAGI2_2, Q86UL8; modified: O-phospho-L-threonine at T734 (position -1 from the C-terminal residue), phosphorylated residue at S732 (position -3 from the C-terminal residue)): below the threshold
pKd (SNTA1, Q13424): below the threshold
pKd (SCRIB_1, Q14160): below the threshold
pKd (SNX27, Q96L92): below the threshold
pKd (PDZRN4_1, Q6ZMN7): below the threshold
pKd (PTPN3, P26045): below the threshold
pKd (SNTG2, Q9NY99): below the threshold
pKd (SYNJ2BP, P57105; [2]): below the threshold
pKd (SCRIB_3, Q14160; [2]): below the threshold
pKd (MAST2, Q6P0Q8; [2]): below the threshold
pKd (MAGI3_2, Q5TCQ9): below the threshold
pKd (PARD3B_1, Q8TEW8; modified: phosphorylated residue at S732 (position -3 from the C-terminal residue), phosphorylated residue at T733 (position -2 from the C-terminal residue), phosphorylated residue at T734 (position -1 from the C-terminal residue)): below the threshold
pKd (HTRA1, Q92743): below the threshold
pKd (PDZD7_3, Q9H5P4): below the threshold

RRSQSRESQC [a stretch of P03149, P03149]
pKd (APBA1_2, Q02410): below the threshold
